Assays:
[1] = molecular target: T1, neuraminidase (NA) of influenza A virus H5N1 A/Hong Kong/156/97 (Influenza A virus A/Hong Kong/156/97 …, UniProt Q9W7Y7 1-450); test: flow cytometry on 293-F cells transfected with NA
T1 construct: also called A/Hong Kong/156/97 (H5N1); NA of influenza virus A N1 subtype

[2] = molecular target: human FcγRIIIa receptor (FcγRIIIa V158) (human, UniProt P08637 17-254); test: cell-based or functional assay
[3] = molecular target: T2, neuraminidase (NA) of influenza B virus B/Malaysia/2506/2004 (Victoria lineage) (Influenza B virus B/Malaysia/2506/2004); test: cell-based or functional assay
[4] = molecular target: T3, neuraminidase (NA) of influenza B virus B/Florida/04/2006 (Yamagata lineage) (Influenza B virus B/Florida/04/2006); test: cell-based or functional assay
[5] = molecular target: neuraminidase (NA) of influenza A virus H3N2 strain A/Perth/16/2009 (Influenza A virus A/Perth/16/2009 (H3N2)); test: cell-based or functional assay
[6] = molecular target: T2, neuraminidase (NA) of influenza B virus …; test: cell-based or functional assay; remark: listed apart in the source
[7] = molecular target: neuraminidase (NA) of influenza A virus H1N1 strain A/New Caledonia/20/1999 (Influenza A virus A/New …); test: cell-based or functional assay
[8] = molecular target: T3, neuraminidase (NA) of influenza B virus …; test: cell-based or functional assay; remark: listed apart in the source

T1 sequence (Q9W7Y7 whole entry): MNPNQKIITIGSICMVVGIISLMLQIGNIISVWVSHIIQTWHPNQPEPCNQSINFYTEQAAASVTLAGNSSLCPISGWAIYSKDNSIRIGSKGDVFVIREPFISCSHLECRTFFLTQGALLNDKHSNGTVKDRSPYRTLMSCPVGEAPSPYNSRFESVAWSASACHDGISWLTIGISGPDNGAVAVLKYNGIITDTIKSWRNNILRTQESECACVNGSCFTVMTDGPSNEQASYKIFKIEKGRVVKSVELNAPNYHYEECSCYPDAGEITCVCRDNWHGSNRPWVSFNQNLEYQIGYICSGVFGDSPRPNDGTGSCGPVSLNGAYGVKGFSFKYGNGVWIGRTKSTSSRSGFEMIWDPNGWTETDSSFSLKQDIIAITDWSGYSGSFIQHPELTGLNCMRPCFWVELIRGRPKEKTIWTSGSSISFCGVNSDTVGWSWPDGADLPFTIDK
Chain of human FcγRIIIa receptor (FcγRIIIa V158) (P08637 17-254 F176V limits assumed): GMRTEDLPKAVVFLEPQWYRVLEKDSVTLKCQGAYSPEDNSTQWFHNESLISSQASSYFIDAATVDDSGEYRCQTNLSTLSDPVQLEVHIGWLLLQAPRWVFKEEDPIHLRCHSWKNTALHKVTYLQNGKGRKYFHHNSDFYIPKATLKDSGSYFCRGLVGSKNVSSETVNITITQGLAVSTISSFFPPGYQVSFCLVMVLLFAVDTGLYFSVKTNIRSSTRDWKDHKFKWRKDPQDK

Binder	MFI [1]	ADCC Reporter Bioassay EC50; A549 target cells infected with B/Lee/1940 [2]	Virus neutralization assay (VNA) on MDCK-SIAT1 cells, IC50 [3]	Virus neutralization assay (VNA) on MDCK-SIAT1 cells, IC50 [4]	Neuraminidase inhibition activity, EC50 (NA-XTD assay, whole virus) [5]	Neuraminidase inhibition activity, EC50 (NA-XTD assay, whole virus) [6]	Neuraminidase inhibition activity, EC50 (NA-XTD assay, whole virus) [7]	Neuraminidase inhibition activity, EC50 (NA-XTD assay, whole virus) [8]
CR14012 (antibody, V domains shown, also called sc14-012; anti-NA IgG) VH: QVQLQESGGGVVQPGRSLRLSCAASGFSFSTYGMHWVRQAPGKGLEWVAVISYDGSNKYYADSVKGRFTISRDNAKNTLYLQMNSLRAEDTAVYYCGRDSGYTTNWYPGGYWGQGTLVTVSS VL: not shown	< 250 mfi							
CR14017 (antibody, V domains shown, also called sc14-017; anti-NA IgG) VH: EVQLVETGGGVVQPGRSLRLSCAASGFTFNTHAMHWVRQAPGKGLEWLAVISYDGNIKYYADSVKGRFTISRDSSKNTLYLLMNSLRAEDTAIYYCARDRGDYNYLPSDYWGQGTLVTVSS VL: not shown	< 250 mfi	0.08 µg/mL						
CR14011 (antibody, V domains shown, also called sc14-011; anti-NA IgG) VH: EVQLVETGGGVVQPGRSLRLSCSVSGFSFTTYAMHWVRQAPGKGLEWVAIISDDATKKYYADSVKGRFTISRDNSRNTLILQMNSLRAEDTGVYYCAKDGDPGYDSRYYYYYGMDVWGQGTTVTVSS VL: SYVLTQPPSVSVAPGKTARITCGGNNIGSKSVHWYQQKPGQAPVLVIYYDSDRPSGIPERFSGSNSGNTATLTISRVEAGDEADYYCQVWDSSSDHPVFGGGTKLTVL	< 250 mfi		1.19 µg/mL	2.21 µg/mL	> 50 µg/mL	0.013 µg/mL	> 50 µg/mL	0.004 µg/mL
